Key:
NEDD8 = NEDD8 (UniProt Q15843 1-76); assay: NMR titration
ubiquitin = ubiquitin (UniProt P0CG48 1-76); assay: NMR titration

AAEDQVPCEKCGSLVPVWDMPEHMDYHFALELQKS (domain or fragment) [UBZ domain of Pol η (amino acids 628–662)]
Kd (NEDD8): 671 ± 153 µM | Kd (ubiquitin): 159 ± 9.5 µM

Source: article PMC11482926 (bioRxiv, 2024)
